Paper PMC11481384 (2024)

B1: 6-mer peptide (peptide)
chain: NVESGE
modifications: Sequence shown only in Fig. 4B; limits taken as the NxESGE motif (UniProt Keap1-interaction region 77-82). Synthetic peptide, termini not stated
B2: ED 12-mer peptide (peptide)
chain: ESGEEELASKLD
modifications: Limits inferred from the name: first residue E, last residue D, 12 residues, containing ESGE; by analogy IE 12-mer = 71-82 (PDB 8IN0) and the 20-mer is probably 71-90. Synthetic peptide, termini not stated

Biological target: Keap1 Kelch domain (amino acid residues 309 to 624) (human, UniProt Q14145 309-624)
Experiment: ITC

Keap1 Kelch domain (amino acid residues 309 to 624), sequence (Q14145 309-624): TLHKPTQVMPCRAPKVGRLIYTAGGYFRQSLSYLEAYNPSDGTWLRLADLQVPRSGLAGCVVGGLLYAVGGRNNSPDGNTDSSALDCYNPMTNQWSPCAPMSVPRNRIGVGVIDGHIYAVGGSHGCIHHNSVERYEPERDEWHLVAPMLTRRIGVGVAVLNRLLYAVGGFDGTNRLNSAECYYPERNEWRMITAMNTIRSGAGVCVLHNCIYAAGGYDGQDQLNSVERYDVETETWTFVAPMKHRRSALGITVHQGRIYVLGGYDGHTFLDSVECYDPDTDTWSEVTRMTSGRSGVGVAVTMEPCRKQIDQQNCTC

Kd [µM] | Binder
133 | B1
14 | B2
63.6 | INVRKRNVESGE [PGAM5 IE 12‐mer peptide]
